The results in this text go back to patent publication US11560566B2, “Aptazyme-embedded guide RNAs for use with CRISPR-Cas9 in genome editing and transcriptional activation” (President and Fellows of Harvard College, priority 2017, dated 2023).

For data set [1], the system named is FANCF site. The data set can be described thus: Theophylline-dependent base editing (BE3), FANCF site. The data set is classed as cell-based, human. Particulars: ligand concentration 4 mM. The text has this: Cells were harvested 3 days after transfection.
In data set [2] the test system is GFP gene (modified promoter) in HEK293T cells. The data set can be described thus: Transcriptional activation of GFP reporter with dCas9-VPR in HEK293T cells. In kind it is cell-based, human. The text has this: In addition to genome editing, transcriptional regulation is another widely used application of CRISPR-Cas9^4. To further explore the utility of agRNAs, we sought to develop an agRNA that responds to a different small-molecule ligand and activates the expression of a guide RNA-specified target gene, rather than editing a target gene through DNA cleavage. A previously reported guanine-aptazyme^24 that contains a naturally occurring guanine aptamer^25 was incorporated into the guide RNA and the resulting guanine-agRNA was tested for its ability to activate transcription of a GFP gene in HEK293T cells (FIG. 3c). […] In the presence of an active guide RNA, dCas9-VPR initiates transcription of GFP, ultimately resulting in cell fluorescence.
(§1) To each well in a 48-well plate, 200 ng of dCas9-VPR plasmid, 0.5 ng of guide RNA plasmid and 60 ng of reporter plasmid were transfected using 1.2 μL Lipofectamine 2000. […] Cells were harvested 20 h after transfection.

In data set [3] the test system is target dsDNA (full GFP gene). The data set can be described thus: In vitro DNA cleavage assay (Cas9 + guide RNA). In kind it is biochemical. Particulars: 10 nM target DNA, 100 nM guide RNA, 100 nM Cas9, 37° C.; for target DNA cleavage followed by gel electrophoresis: 1 h for sgRNA variants, 5 h for crRNA and tracrRNA variants. Here is the method:
The blocker-linked guide RNAs were prepared by in vitro transcription and incubated in vitro with Cas9 protein and a target dsDNA. Target DNA cleavage was followed by gel electrophoresis (FIG. 1b).
SpCas9 protein was purified as previously described^1,35. Guide RNAs were transcribed using a T7 High Yield RNA Synthesis Kit (NEB) following the manufacturer's protocol, and purified with the E.Z.N.A. PF miRNA Isolation Kit (Omega Bio-tek, Inc.). The target dsDNA (full GFP gene) was amplified by polymerase chain reaction and purified using QlAquick PCR Purification Kit (QIAGEN). For the cleavage reaction, 10 nM of the target DNA was incubated with 100 nM of the guide RNA in the presence of 100 nM Cas9 protein in a Cas9 DNA cleavage buffer (150 mM KCl, 10 mM MgCl2, 0.5 mM DTT, 0.1 mM EDTA, 20 mM HEPES pH 7.5). In vitro editing reactions were incubated at 37° C. for 1 h for sgRNA and its variants and the reactions for crRNA and tracrRNA and their variants were incubated at 37° C. for 5 h before being stopped with 6×DNA loading buffer and analyzed by non-denaturing agarose gel electrophoresis.

Data set [4] relates to endogenous GFP locus in HEK293-GFP cells. The text has this:
To compare the activities of the guide RNAs with the blocking region either present or removed, a non-cleaving “dead” variant of HHR-bsgRNA (dHHR-bsgRNA) containing a single A to G point mutation in the catalytic loop of the hammerhead ribozyme was produced. To optimize the restoration of guide RNA activity by self-cleavage of the hammerhead ribozyme, the length of the blocking sequence was varied. Three sets of HHR-bsgRNAs and dHHR-bsgRNAs with blocking sequences of 10 to 17 nucleotides were constructed. The genome editing activities of these sgRNA variants in the presence of Cas9 in human embryonic kidney cells harboring genomic GFP genes (HEK293-GFP) were assayed by targeting the endogenous GFP locus (FIG. 2a).
HEK293 cells with integrated GFP genes (GenTarget Inc.) were cultured in 48-well plates (40,000 cells seeded per well) in Dulbecco's Modified Eagle's Media plus GlutaMAX (DMEM, Life Technologies) with 10% FBS. Plasmids were transfected ˜20 h after plating when cells reached ˜70% confluence. To edit the GFP genes in HEK293 cells, 100 ng of Cas9 plasmid and 2 ng of guide RNA plasmid were transfected in each well using 1.2 μL Lipofectamine 2000 (Life Technologies) following the manufacturer's protocol. To distinguish transfected cells from non-transfected cells, 2 ng of an iRFP expression plasmid was co-transfected. A stock solution of 100 mM theophylline was made in 60 mM NaOH and was supplied to cells 6 h after plasmid transfection at designed concentrations. The cells were incubated for additional 7 days before analysis and media was changed at day 3, 5 and 6. Fresh theophylline was supplied immediately at the same concentration as in the initial condition each time the media was changed. GFP fluorescence was quantified by flow cytometry and the transfected live population was gated by iRFP signal.

The subject of data set [5] is RFP reporter in HEK293T cells. The data set can be described thus: Transcriptional activation of RFP reporter with dCas9-VPR in HEK293T cells. In kind it is cell-based, human. To be noted: different spacer sequence. Here is the method:
To further generalize this strategy, we tested the guanine-agRNA with three bulges for RFP activation in HEK293T cells with a different spacer sequence that is unrelated to the spacer used to target GFP.
as §1

Regarding `Cn1c(=O)[nH]c(=O)c2[nH]cnc21` [3-methylxanthine], in data set [1], the “response of theophylline-agRNA-mediated base editing to ligand, fold less strongly than to theophylline” value is recorded as 2 fold.

On to `Nc1nc2nc[nH]c2c(=O)[nH]1` [guanine, reference compound], for which the “effect of guanine on GFP fluorescence” value in data set [2] (guanine in the medium from 0 to 200 μM, cells with (d) guanine-agRNA) was “slightly reduced GFP fluorescence”.

B1: blocked crRNA: crRNA with 42-nucleotide linker and 10-nucleotide blocking sequence appended to the 3′ end (nucleic acid)
guide: GGGCACGGGCAGCUUGCCGGGUUUUAGAGCUAUGCUGUUUUGGAUGGCAACCACGUCGCGUCCUGUAGUAGUAUGAUAGCUCUAA
modifications: unmodified RNA
Regarding B1, in data set [3], the “target DNA cleavage followed by gel electrophoresis” value (“target DNA cleavage followed” for short) is “partial cleavage of the target DNA”.

B2: 5′ spacer-blocked sgRNA: sgRNA with 42-nucleotide linker and 6-nucleotide blocking sequence complementary to the spacer at the 5′ end (nucleic acid)
guide: GGUGCCCGUAGUAGUAGUAGCAACCACGUCGCGUCCGUAGUAGUAGUAGGGCACGGGCAGCUUGCCGGGUUUUAGAGCUAGAAAUAGCAAGUUAAAAUAAGGCUAGUCCGUUAUCAACUUGAAAAAGUGGCACCGAGUCGGUGCUUUUUUU
Turning to B2, the “target DNA cleavage followed” value in data set [3] is “no cleavage product could be detected”.

B3: post-cleavage sgRNA: processed HHR-bsgRNA without the blocking sequence, 11 extra nucleotides at the 5′ end (nucleic acid)
guide: GCUGGAUUCCACGGGCACGGGCAGCUUGCCGGGUUUUAGAGCUAGAAAUAGCAAGUUAAAAUAAGGCUAGUCCGUUAUCAACUUGAAAAAGUGGCACCGAGUCGGUGCUUUUUUU
modifications: chemistry not given here
For B3, the “activity compared to the unmodified guide RNA” value in data set [4] (HEK293-GFP cells, Cas9, sgRNA with 11 extra nucleotides at the 5′ end) is recorded as “maintained most of its activity”.

B4: blocked tracrRNA: tracrRNA with 42-nucleotide linker and 10-nucleotide blocking sequence appended to the 5′ end (nucleic acid)
chain: GGAUUUUAACUUUAGUAGUAGUAGGCAACCACGUCGCGUCCUAGUAGGCAUAGCAAGUUAAAAUAAGGCUAGUCCGUUAUCAACUUGAAAAAGUGGCACCGAGUCGGUGCUUUUUUU
modifications: unmodified RNA
Consider B4, for which the “target DNA cleavage followed” value in data set [3] is “partial cleavage of the target DNA”.

B5: canonical sgRNA: canonical Streptococcus pyogenes single guide RNA targeting GFP, positive control (nucleic acid)
guide: GGGCACGGGCAGCUUGCCGGGUUUUAGAGCUAGAAAUAGCAAGUUAAAAUAAGGCUAGUCCGUUAUCAACUUGAAAAAGUGGCACCGAGUCGGUGCUUUUUUU
modifications: chemistry not given here
notes: canonical Streptococcus pyogenes single guide RNA targeting GFP, positive control
Regarding B5, the “activity relative to that of the activated agRNA” value in data set [4] (loss beyond the off-state, 62% vs 48%) is 1.3 fold. Besides, the “loss beyond the off-state” value in data set [4] (wild-type Cas9) came to 62%. In data set [4] (wild-type Cas9, canonical guide, positive control), this molecule gave a GFP loss of 72%. Moreover, the cleavage efficiency in data set [3] (1 h) is recorded as around 100%.

B6: guanine-agRNA: guanine-aptazyme-embedded guide RNA for GFP activation (nucleic acid)
guide: GCAAGCUGCCCGUGCCCGGUACAUCCAGCUGAUGAGUCCCAAAUAGGACGAAAUACUAUAAUCGCGUGGAUAUGGCACGCAAGUUUCUACCGGGCACCGUAAAUGUCCGACUAGUGUCCUGGAUUCCACGGGCACGGGCAGCUUGCCGGGUUUUAGAGCUAGAAAUAGCAAGUUAAAAUAAGGCUAGUCCGUUAUCAACUUGAAAAAGUGGCACCGAGUCGGUGCUUUUUUU
Turning to B6, the “off-state activity (GFP fluorescence)” value in data set [2] (absence of guanine, compared to control cells lacking any guide RNA) is “elevated GFP fluorescence”. In addition, in data set [2] (guanine added to media at 50 μM), the “activation of GFP fluorescence” value is reported as 5 fold.

B7: (d) guanine-agRNA: non-splicing mutant of guanine-agRNA (nucleic acid)
chain: GCAAGCUGCCCGUGCCCGGUACAUCCAGCUGAUGAGUCCCAAAUAGGACGAGAUACUAUAAUCGCGUGGAUAUGGCACGCAAGUUUCUACCGGGCACCGUAAAUGUCCGACUAGUGUCCUGGAUUCCACGGGCACGGGCAGCUUGCCGGGUUUUAGAGCUAGAAAUAGCAAGUUAAAAUAAGGCUAGUCCGUUAUCAACUUGAAAAAGUGGCACCGAGUCGGUGCUUUUUUU
Take B7: the “GFP activation by guanine” value in data set [2] (guanine 50 μM (dHHR-bsgRNA) or different concentrations ((d) guanine-agRNA), dCas9-VPR) is recorded as “only a low level of GFP expression that could no longer be activated by guanine”.

B8: guanine-agRNA with three bulges: guanine-agRNA with bulged blocker and a different spacer for RFP activation (nucleic acid)
guide: ACUGCGGGAUGGAGGAGACGGUACAUCCAGCUGAUGAGUCCCAAAUAGGACGAAAUACUAUAAUCGCGUGGAUAUGGCACGCAAGUUUCUACCGGGCACCGUAAAUGUCCGACUAGUGUCCUGGAUUCCACGUCCCCUCCACCCCACAGUGGUUUUAGAGCUAGAAAUAGCAAGUUAAAAUAAGGCUAGUCCGUUAUCAACUUGAAAAAGUGGCACCGAGUCGGUGCUUUUUUU
On to B8, for which the “guanine-dependent RFP activation ratio” value in data set [5] is around 3 fold.
